Source: patent CN118307667A

Biological target: RSV A/B株的融合蛋白的融合前和融合后构象
Assay: ELISA, F protein coated 50 ng/well, anti-human IgG-Fc-HRP

B1: RSFP2B6抗体 (antibody, V domains shown)
VH: QVQLVQSGGALAQPGRSLRLSCTTSGFTFGDYAVNWVRQAPGKGLEWVGIVRTEPYGGTTEYSASVKGRFIISRDDSKGIAYLQMNSLKTEDTGVYYCSQPILNVDVWGQGTTVTVSS
VL: NFMLTQPHSVSESPGKTVTISCTRSSGSFGSDYVQWYQQRPGSAPNTVIYENNQRPSGVPDRFSGSIDSSSNSASLTISGLKTEDEADYYCQSYDDNTPWVFGGGTELTVL
EC50: 0.292 to 0.603 µg/mL
